Measurements taken from US20150259426A1 (Novartis, published 2015).

How the values were obtained:
[1] = molecular target: T1, cell-bound human DR5 (Colo205 and other human cell lines) (human, UniProt O14763 56-440); experiment: cell-based or functional assay
[2] = molecular target: T1, cell-bound human DR5 (Colo205 and other …); experiment: cell-based or functional assay; remark: listed apart in the source
hGITR = molecular target: T2, hGITR (human, UniProt Q9Y5U5); experiment: ELISA, receptor ECD from E. coli lysate on His capture plate;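 note: binding specificity screen across TNF receptor superfamily ectodomains, anti-V5 detection as expression reference, primary antibody incubation 1 h at room temperature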
T2 construct: extracellular domain, E. coli lysate captured on a His capture plate; Target named only on the sheet; the construct is not described in the text
T2 sequence (extracellular domain, looked up): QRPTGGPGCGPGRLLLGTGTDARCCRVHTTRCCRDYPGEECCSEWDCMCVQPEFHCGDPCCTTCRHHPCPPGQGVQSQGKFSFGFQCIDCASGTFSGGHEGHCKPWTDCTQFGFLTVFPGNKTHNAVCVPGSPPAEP

[3] = molecular target: T3, TNFR1 extracellular domain (TNFRSF1A, Leu34-Thr211) (UniProt P19438 34-211); experiment: as above
T3 construct: range 34-211; ECD cloned into pBadThioTopo; E. coli lysate on His capture plates
T3 sequence (looked up): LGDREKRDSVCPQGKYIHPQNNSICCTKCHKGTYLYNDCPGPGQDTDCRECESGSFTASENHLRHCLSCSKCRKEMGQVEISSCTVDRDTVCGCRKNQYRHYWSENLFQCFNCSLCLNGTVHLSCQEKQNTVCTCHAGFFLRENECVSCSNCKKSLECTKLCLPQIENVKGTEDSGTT

[4] = molecular target: T4, TNFR3 extracellular domain (TNFRSF3, Pro30-Thr224) (UniProt P36941 30-224); experiment: as above
T4 construct: range 30-224; ECD cloned into pBadThioTopo; E. coli lysate on His capture plates
T4 sequence (P36941 30-224 limits assumed): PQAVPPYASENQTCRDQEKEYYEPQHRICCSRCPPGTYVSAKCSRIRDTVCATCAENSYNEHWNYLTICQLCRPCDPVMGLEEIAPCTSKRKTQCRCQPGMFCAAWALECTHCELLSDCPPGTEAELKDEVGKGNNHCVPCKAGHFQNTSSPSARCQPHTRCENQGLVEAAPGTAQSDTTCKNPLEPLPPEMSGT

[5] = molecular target: T5, OX40 extracellular domain (TNFRSF4, Gly33-Gly212) (UniProt P43489 33-212); experiment: as above
T5 construct: ECD cloned into pBadThioTopo; E. coli lysate on His capture plates
T5 sequence (looked up): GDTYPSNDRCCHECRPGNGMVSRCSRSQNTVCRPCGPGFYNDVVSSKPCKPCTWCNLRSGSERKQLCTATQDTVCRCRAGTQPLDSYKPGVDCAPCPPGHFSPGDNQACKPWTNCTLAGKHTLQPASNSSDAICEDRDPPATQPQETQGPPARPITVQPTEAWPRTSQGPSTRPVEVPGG

[6] = molecular target: T6, CD40 extracellular domain (TNFRSF5, Val18-Leu192) (UniProt P25942 18-192); experiment: as above
T6 construct: range 18-192; ECD cloned into pBadThioTopo; E. coli lysate on His capture plates
T6 sequence (P25942 18-192 limits assumed): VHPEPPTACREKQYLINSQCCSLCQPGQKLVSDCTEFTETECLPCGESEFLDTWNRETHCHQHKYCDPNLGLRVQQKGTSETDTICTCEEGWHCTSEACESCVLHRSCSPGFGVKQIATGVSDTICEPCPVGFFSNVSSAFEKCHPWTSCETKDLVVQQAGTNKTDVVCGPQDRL

[7] = molecular target: T7, FAS extracellular domain (TNFRSF6, Ser20-Gly175) (UniProt P25445 20-175); experiment: as above
T7 construct: ECD cloned into pBadThioTopo; E. coli lysate on His capture plates
T7 sequence (looked up): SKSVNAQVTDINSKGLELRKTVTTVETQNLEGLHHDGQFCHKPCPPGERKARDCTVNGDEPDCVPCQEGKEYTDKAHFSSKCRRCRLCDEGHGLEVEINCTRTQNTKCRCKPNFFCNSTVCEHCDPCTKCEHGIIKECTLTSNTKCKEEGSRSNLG

[8] = molecular target: T8, DcR3 (TNFRSF6B, Val27-Ala176) (UniProt O95407 27-176); experiment: as above
T8 construct: range 27-176; ECD cloned into pBadThioTopo; E. coli lysate on His capture plates
T8 sequence (looked up): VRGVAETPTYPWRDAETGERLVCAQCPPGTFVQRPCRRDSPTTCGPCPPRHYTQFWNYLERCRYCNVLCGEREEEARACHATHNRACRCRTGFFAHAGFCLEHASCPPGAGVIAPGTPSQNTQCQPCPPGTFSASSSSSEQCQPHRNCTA

[9] = molecular target: T9, CD27 extracellular domain (TNFRSF7, Thr21-Ser187) (UniProt P26842 21-187); experiment: as above
T9 construct: range 21-187; ECD cloned into pBadThioTopo; E. coli lysate on His capture plates
T9 sequence (P26842 21-187 limits assumed): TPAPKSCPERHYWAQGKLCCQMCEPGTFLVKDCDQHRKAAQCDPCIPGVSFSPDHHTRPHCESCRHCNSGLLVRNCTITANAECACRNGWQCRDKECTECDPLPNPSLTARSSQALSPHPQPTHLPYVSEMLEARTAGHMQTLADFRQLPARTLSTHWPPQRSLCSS

[10] = molecular target: T10, CD137 extracellular domain (TNFRSF9, Glu19-Ile188) (UniProt Q07011 19-188); experiment: as above
T10 construct: range 19-188; ECD cloned into pBadThioTopo; E. coli lysate on His capture plates
T10 sequence (Q07011 19-188 limits assumed): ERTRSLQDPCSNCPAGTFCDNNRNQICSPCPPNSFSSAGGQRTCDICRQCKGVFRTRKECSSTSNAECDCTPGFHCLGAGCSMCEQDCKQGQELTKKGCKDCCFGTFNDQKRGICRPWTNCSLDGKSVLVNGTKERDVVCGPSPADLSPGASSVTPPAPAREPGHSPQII

[11] = molecular target: T11, DcR2 extracellular domain (TNFRSF10D, Thr57-Thr198) (UniProt Q9UBN6 57-198); experiment: as above
T11 construct: range 57-198; ECD cloned into pBadThioTopo; E. coli lysate on His capture plates
T11 sequence (looked up): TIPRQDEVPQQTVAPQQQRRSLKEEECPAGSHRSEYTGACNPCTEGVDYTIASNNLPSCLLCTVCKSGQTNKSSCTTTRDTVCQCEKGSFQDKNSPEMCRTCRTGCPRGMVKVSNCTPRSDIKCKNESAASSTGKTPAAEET

[12] = molecular target: T12, OPG (TNFRSF11B, Lys17-Ile197) (UniProt O00300 17-197); experiment: as above
T12 construct: range 17-197; ECD cloned into pBadThioTopo; E. coli lysate on His capture plates
T12 sequence (looked up): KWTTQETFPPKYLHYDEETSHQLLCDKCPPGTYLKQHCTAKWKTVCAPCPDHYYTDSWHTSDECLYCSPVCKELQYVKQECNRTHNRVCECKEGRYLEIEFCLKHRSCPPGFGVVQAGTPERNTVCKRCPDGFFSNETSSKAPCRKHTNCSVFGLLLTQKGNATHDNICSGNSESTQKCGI

[13] = molecular target: T13, BAFFR extracellular domain (TNFRSF13C, Met1-Gly64) (UniProt Q96RJ3 1-64); experiment: as above
T13 construct: range 1-64; ECD cloned into pBadThioTopo; E. coli lysate on His capture plates
T13 sequence (Q96RJ3 1-64 limits assumed): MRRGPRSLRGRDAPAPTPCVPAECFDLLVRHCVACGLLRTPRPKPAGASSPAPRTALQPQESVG

[14] = molecular target: cynomolgus DR5-Fc fusion protein (cyno DR5 amino acids 56 to 213 fused with human IgG1 Fc) (cynomolgus; human); experiment: SPR (Biacore), CM5 chip coated with cynomolgus DR5-Fc, 1 to 100 nM NB construct

B1: 4E6 tri (trivalent anti-DR5 NB construct) (VHH)
chain: EVQLVESGGGSVQAGDSLRLSCAASGRTFGSIRVGWFRQTPGKEREFVAAINRNDGTTYYADSVKGRFTISRDNAKNTVYMQMASLKPEDTAVYYCAAGLQYNRSADRVPVGAVYWGQGTQVTVSSGGGGSGGGGSGGGGSGGGGSGGGGSGGGGSGGGGSEVQLVESGGGSVQAGDSLRLSCAASGRTFGSIRVGWFRQTPGKEREFVAAINRNDGTTYYADSVKGRFTISRDNAKNTVYMQMASLKPEDTAVYYCAAGLQYNRSADRVPVGAVYWGQGTQVTVSSGGGGSGGGGSGGGGSGGGGSGGGGSGGGGSGGGGSEVQLVESGGGSVQAGDSLRLSCAASGRTFGSIRVGWFRQTPGKEREFVAAINRNDGTTYYADSVKGRFTISRDNAKNTVYMQMASLKPEDTAVYYCAAGLQYNRSADRVPVGAVYWGQGTQVTVSS
notes: three VHH units in one chain joined by GlySer linkers; not shown: CMYC-HIS6 tag
IC50, cell survival, Colo205 [1]: 0.0379 nM
IC50, cell survival, A549 [2]: ≥ 20 nM
IC50, cell survival, ARPE-19 [2]: ≥ 20 nM
IC50, cell survival, H226 [2]: 0.02 nM
IC50, cell survival, H2052 [2]: 0.006 nM
IC50, cell survival, H2122 [2]: 0.002 nM
IC50, cell survival, Huvec [2]: ≥ 20 nM
IC50, cell survival, IMR-90 [2]: ≥ 20 nM
IC50, cell survival, Jurkat [2]: ≥ 20 nM
IC50, cell survival, M30 [2]: ≥ 20 nM
IC50, cell survival, MiaPaCa-2 [2]: 0.023 nM
IC50, cell survival, Molt4 [2]: ≥ 20 nM
IC50, cell survival, Panc-1 [2]: ≥ 20 nM
binding result (hGITR): no binding (tested: not stated)
binding result [3]: no binding (tested: not stated)
binding result [4]: no binding (tested: not stated)
binding result [5]: no binding (tested: not stated)
binding result [6]: no binding (tested: not stated)
binding result [7]: no binding (tested: not stated)
binding result [8]: no binding (tested: not stated)
binding result [9]: no binding (tested: not stated)
binding result [10]: no binding (tested: not stated)
binding result [11]: no binding (tested: not stated)
binding result [12]: no binding (tested: not stated)
binding result [13]: no binding (tested: not stated)
Kd [14]: < 0.09 nM

B2: 10F1 tri (trivalent anti-DR5 NB construct) (VHH, not shown: small tags and cut ends)
chain: EVQLVESGGGLVQPGGSLRLSCAASGFTFSRYWMYWVRQAPGKGLEWVSAINSGGGDTYYRDSVRGRFTISRDNFKNTLYLQMNSLKSEDTAVYYCAKAEGPPTFSLIRTMTVDPGAQGTQVTVSSGGGGSGGGGSGGGGSGGGGSGGGGSGGGGSGGGGSEVQLVESGGGLVQPGGSLRLSCAASGFTFSRYWMYWVRQAPGKGLEWVSAINSGGGDTYYRDSVRGRFTISRDNFKNTLYLQMNSLKSEDTAVYYCAKAEGPPTFSLIRTMTVDPGAQGTQVTVSSGGGGSGGGGSGGGGSGGGGSGGGGSGGGGSGGGGSEVQLVESGGGLVQPGGSLRLSCAASGFTFSRYWMYWVRQAPGKGLEWVSAINSGGGDTYYRDSVRGRFTISRDNFKNTLYLQMNSLKSEDTAVYYCAKAEGPPTFSLIRTMTVDPGAQGTQVTVSS
IC50, cell survival, Colo205 [1]: 0.0407 nM
IC50, cell survival, A549 [2]: ≥ 20 nM
IC50, cell survival, ARPE-19 [2]: ≥ 20 nM
IC50, cell survival, H226 [2]: 0.02 nM
IC50, cell survival, H2052 [2]: 0.013 nM
IC50, cell survival, H2122 [2]: 0.003 nM
IC50, cell survival, Huvec [2]: ≥ 20 nM
IC50, cell survival, IMR-90 [2]: ≥ 20 nM
IC50, cell survival, Jurkat [2]: ≥ 20 nM
IC50, cell survival, M30 [2]: ≥ 20 nM
IC50, cell survival, MiaPaCa-2 [2]: ≥ 20 nM
IC50, cell survival, Molt4 [2]: ≥ 20 nM
IC50, cell survival, Panc-1 [2]: ≥ 20 nM
binding result (hGITR): no binding (tested: not stated)
binding result [3]: no binding (tested: not stated)
binding result [4]: no binding (tested: not stated)
binding result [5]: no binding (tested: not stated)
binding result [6]: no binding (tested: not stated)
binding result [7]: no binding (tested: not stated)
binding result [8]: no binding (tested: not stated)
binding result [9]: no binding (tested: not stated)
binding result [10]: no binding (tested: not stated)
binding result [11]: no binding (tested: not stated)
binding result [12]: no binding (tested: not stated)
binding result [13]: no binding (tested: not stated)
Kd [14]: < 0.6 nM
